{"source": "paper PMC12290059", "target": "recombinant SARS-CoV-2^RBD (biotinylated, AVI-tagged) (SARS-CoV-2) (UniProt P0DTC2)", "assay": "BLI", "data": [{"substance": "N. vison ACE2 used in biolayer interferometry (domain or fragment)", "values": [{"measurement": "Kd", "result": 1.5, "unit": "nM"}]}]}
